Assay results published in patent US20220089709A1 (HEFEI LIFEON PHARMACEUTICAL, published 2022).

Legend:
[1] = molecular target: ED-B domain of human fibronectin, recombinant, with C-terminal six-histidine tag (human) (UniProt P02751); experiment: ELISA on coated ED-B, Scatchard assay (Beatty et al.)
[2] = molecular target: T1, ED-B domain of human fibronectin, recombinant, with C-terminal six-histidine tag (human, UniProt P02751 1266-1356); experiment: direct ELISA on coated ED-B, Scatchard analysis (Beatty et al.)
T1 construct: Expressed in E. coli from pET-22b(+) (EcoRI/NotI); residues from the vector between ED-B and the tag are not described; also called EDB antigen; antigen ED-B
T1 sequence (P02751 other isoform, or with tags, fused parts or gaps limits assumed): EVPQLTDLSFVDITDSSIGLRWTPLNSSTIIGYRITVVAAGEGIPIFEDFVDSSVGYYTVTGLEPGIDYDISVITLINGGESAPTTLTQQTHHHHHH

Sequence of ED-B domain of human fibronectin, recombinant, with C-terminal six-histidine tag (human) (P02751 other isoform, or with tags, fused parts or gaps limits assumed): as above

Kd [1] [nM] | affinity relative to L19 [2] [fold] | Molecule
6 | – | L19-Fc (Fc fusion)
– | ~3 | A11 antibody (Fc fusion, Assayed as purified Fc-containing antibody from mammalian cells) EVQLLESGGGLVQPGGSLRLSCAASGFTFSSYAMSWVRQAPGKGLEWVSRISPSGSSTYYADSVKGRFTISRDNSKNTLYLQMNSLRAEDTAVYYCARRMSYFDYWGQGTLVTVSSGGGGSGGGGSGGGGSSQSALTQPASVSGSPGQSITISCSGDSLGIGSNNYVSWYQQHPGKAPKLMIYDDNKRPSGVSNRFSGSKSGNTASLTISGLQAEDEADYYCQSWDGRQPVFGGGTKLTVLG
